Biological target: T1, Flag-RNF185 (wild type, full length human RNF185 with N-terminal Flag tag) (human, UniProt Q96GF1 2-192)
T1 construct: Expressed by transfection in HEK293T cells; co-immunoprecipitation from lysates; For the CFTR co-IP, cells expressing WT RNF185 were treated with MG132 for 5 hours; also called RNF185 WT; Flag-tagged RNF185
T1 sequence: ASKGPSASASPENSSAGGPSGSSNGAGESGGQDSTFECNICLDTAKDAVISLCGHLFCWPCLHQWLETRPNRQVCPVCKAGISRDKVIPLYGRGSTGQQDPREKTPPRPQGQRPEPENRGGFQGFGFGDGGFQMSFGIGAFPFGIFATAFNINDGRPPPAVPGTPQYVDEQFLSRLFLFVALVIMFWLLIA
Assay: Flag co-immunoprecipitation from HEK293T cell lysates

B1: Ubc7/UBE2G1 (enzyme, UniProt P62253 1-170, looked up)
chain: MTELQSALLLRRQLAELNKNPVEGFSAGLIDDNDLYRWEVLIIGPPDTLYEGGVFKAHLTFPKDYPLRPPKMKFITEIWHPNVDKNGDVCISILHEPGEDKYGYEKPEERWLPIHTVETIMISVISMLADPNGDSPANVDAAKEWREDRNGEFKRKVARCVRKSQETAFE
notes: the construct is not described
Question: Does B1 bind?
Answer: no binding

Source: US20160194644A1 (COMMISSARIAT A L ENERGIE ATOMIQUE ET AUX ENERGIES …, published 2016)
